Experimental data: patent publication US20080008648A1

Target: human IL13 (human) (UniProt P35225)
Experiment: cell-based or functional assay

Sequence of human IL13 (human) (P35225 35-146 limits assumed): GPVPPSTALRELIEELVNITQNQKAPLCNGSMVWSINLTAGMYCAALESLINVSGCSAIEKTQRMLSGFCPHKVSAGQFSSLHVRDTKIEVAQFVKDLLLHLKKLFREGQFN

inhibition of IL13-suppressed CD14 expression on human monocytes (complete inhibition): > 80 nM
Substance: anti-IL13 mAb JES10-5A2 (BD Biosciences-Pharmingen) (antibody)
